# From paper PMC2323294
# Values joined by “and” are separate entries in the source; they are usually repeats but may differ in a detail not shown here. Equal values may be shown once.
# Molecular target: recombinant human gC1qR/HABP1/p32 (mature, amino acids 74-282) (human) (UniProt Q07021)
# Experiment: SEC; gel permeation chromatography of purified recombinant gC1qR/HABP1 on a Superdex 200 HR10/30 column, against molecular weight standards
substance,measurement,value
"recombinant human gC1qR/HABP1/p32 (mature, amino acids 74-282) (from UniProt Q07021 74-282) (natural protein; other documents disagree on this pair)",stoichiometry N,3 and 2
